According to patent US6713273B2, “High expression and production of high specific activity recombinant S-adenosyl homocysteinase (SAHH) and improved assays for S-adenosylmethionine (SAM)” (priority 2000, dated 2004):

What was measured:
[1] = Stability study of SAHH / His•SAHH; type: physicochemical; settings: 45° for three days; FIGS. 2 and 5
Source text: FIG. 2 contains the results of a stability study of SAHH.
FIG. 5 contains the results of a stability study of His•SAHH.
The SAHH enzyme of the invention has favorable properties. For instance, the SAHH has a high specific activity of at least […]. Further, the cloned SAHH of the invention provides a high expression of 20% of total cell protein. Moreover, SAHH produced according to the method of the invention has high stability as illustrated in the attached FIGS. 2 and 5.
The enzyme was formulated as follows: 20 mM potassium phosphate buffer, pH 7.6, 100 mM sodium chloride, 30% glycerol, 1 mM DTT, 1 mM NAD, and 1 mM EDTA.

[2] = SAHH activity measurement (SAH hydrolysis coupled to rHCYase, DBPDA readout); type: biochemical
Protocol: Assay buffer: 20 mM potassium phosphate, pH 8.0, 1 mM DTT, and 1 mM EDTA.
2 mM S-adenosyl-L-homocysteine (SAH)
L-homocysteine (various concentrations)
40 mM DBPDA, dissolved in 6 M HCl
40 mM potassium ferricyanide
Mix well and incubate at 37° C. for 10 min. and read absorbance at 675 nm or fluorescence at EX665 nm/EM690 nm. 1 unit is defined as 1 μmole of S-adenosylhomocysteine hydrolated in 1 min. at 37° C. in the presence of excess rHCYase.

B1: SAHH: Recombinant T. vaginalis S-adenosyl homocysteinase encoded by SEQ ID NO:1 (amino acid SEQ ID NO:7), expressed in E. coli (protein, listed as Homo sapiens)
chain: MACKSPTGAPFEYRIADINLHVLGRKELTLAEKEMPGLMVLRERYSASKPLKGVRISGSLHMTVQTAVLIETLTALGADVRWASCNIFSTQDTAAAAIVVGPTGTPEKPAGIPVFAWKGETLPEYWENTYRALTWPDGQGPQQVVDDGGDATLLISKGFEFETAGAVPEPTEADNLEYRCVLATLKQVFNQDKNHWHTVAAGMNGVSEETTTGVHRLYQLEKEGKLLFPAINVNDAVTKSKFDNIYGCRHSLIDGINRASDVMIGGKTALVMGYGDVGKGCAQSLRGQGARVIITELDPICALQAAMEGYQVRRIEEVVKDVDIFVTCTGNCDIISVDMMAQMKDKAIVGNIGHFDNEIDTDGLMKYPGIKHIPIKPEYDMWEFPDGHAILLLAEGRLLNLGCATGHPSFVMSMSFTNQTLAQLDLYEKRGNLEKKVYTLPKHLDEEVARLHLGSLDVHLTKLTQKQADYINVPVEGPYKSDAYRY
stability (activity loss) [1]: without activity loss | specific activity ([2]; general statement on the SAHH of the invention): at least 1.5 U/ml | specific activity ([2]; purified enzyme, 1 unit = 1 μmole SAH hydrolated in 1 min at 37° C. with excess rHCYase): 1.64 units/mg protein
